Article PMC7382501 (Nature Communications, 2020)

Biological target: the molecule itself
Test: crystal structure

B1: FasRΔ33, truncated FasR lacking the first 33 amino acids (domain or fragment)
chain: RLPRDERRGQLLVVASDVFVDRGYHAAGMDEIADRAGVSKPVLYQHFSSKLELYLAVLHRHVENLVSGVHQALSTTTDNRQRLHVAVQAFFDFIEHDSQGYRLIFENDFVTEPEVAAQVRVATESCIDAVFALISADSGLDPHRARMIAVGLVGMSVDCARYWLDADKPISKSDAVEGTVQFAWGGLSHVPLTRS
Question: With B1 as the protein, how does the “stoichiometry N” value read?
Answer: Its value is 2.
